Source: patent publication US20140274782A1 (Stanford University, published 2014)

Key:
Assay in all cases: ProtoArray, GST-treated control array;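 note: human protein microarray (about 9500 recombinant proteins) incubated overnight with GST alone plus SAM cofactor as the negative control for G9a SET domain methylation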
[1] = target: T1, ZRANB1-zinc finger, RAN-binding domain containing 1 (ZRANB1) (human, UniProt Q9UGI0 1-708)
T1 sequence (looked up): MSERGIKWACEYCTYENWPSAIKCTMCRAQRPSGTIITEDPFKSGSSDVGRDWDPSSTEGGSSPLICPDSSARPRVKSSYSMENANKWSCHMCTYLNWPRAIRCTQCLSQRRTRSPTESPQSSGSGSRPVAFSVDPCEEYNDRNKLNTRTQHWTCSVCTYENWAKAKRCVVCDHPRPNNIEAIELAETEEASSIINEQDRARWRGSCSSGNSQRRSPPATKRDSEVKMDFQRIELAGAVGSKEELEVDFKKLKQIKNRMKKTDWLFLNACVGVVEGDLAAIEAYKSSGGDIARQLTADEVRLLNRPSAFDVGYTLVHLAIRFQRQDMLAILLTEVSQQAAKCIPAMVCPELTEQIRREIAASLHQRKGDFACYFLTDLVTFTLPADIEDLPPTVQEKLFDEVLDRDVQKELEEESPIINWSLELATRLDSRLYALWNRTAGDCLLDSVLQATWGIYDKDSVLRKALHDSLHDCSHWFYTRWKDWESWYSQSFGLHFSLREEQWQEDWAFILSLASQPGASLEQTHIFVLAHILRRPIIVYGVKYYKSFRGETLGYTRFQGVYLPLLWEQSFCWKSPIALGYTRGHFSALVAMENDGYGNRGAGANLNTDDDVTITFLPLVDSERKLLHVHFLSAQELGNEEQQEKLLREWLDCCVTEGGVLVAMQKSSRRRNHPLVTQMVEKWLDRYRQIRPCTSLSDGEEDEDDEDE

[2] = target: T2, TCTA-T-cell leukemia translocation altered gene (TCTA) (human, UniProt P57738 1-103)
T2 sequence (looked up): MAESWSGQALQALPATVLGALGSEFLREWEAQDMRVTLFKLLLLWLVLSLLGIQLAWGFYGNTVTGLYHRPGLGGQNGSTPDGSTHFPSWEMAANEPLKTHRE

[3] = target: T3, CLDN15-claudin 15 (CLDN15) (human, UniProt P56746 1-228)
T3 sequence (looked up): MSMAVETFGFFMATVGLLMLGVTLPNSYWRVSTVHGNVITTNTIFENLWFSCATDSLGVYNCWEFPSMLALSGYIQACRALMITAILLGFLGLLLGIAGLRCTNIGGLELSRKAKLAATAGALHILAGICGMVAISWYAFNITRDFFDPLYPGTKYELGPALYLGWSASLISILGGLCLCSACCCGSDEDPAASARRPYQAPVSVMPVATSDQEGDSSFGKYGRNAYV

[4] = target: T4, SMAP1-stromal membrane-associated protein 1 (SMAP1) (human, UniProt Q8IYB5 1-467, limits assumed)
T4 sequence (looked up): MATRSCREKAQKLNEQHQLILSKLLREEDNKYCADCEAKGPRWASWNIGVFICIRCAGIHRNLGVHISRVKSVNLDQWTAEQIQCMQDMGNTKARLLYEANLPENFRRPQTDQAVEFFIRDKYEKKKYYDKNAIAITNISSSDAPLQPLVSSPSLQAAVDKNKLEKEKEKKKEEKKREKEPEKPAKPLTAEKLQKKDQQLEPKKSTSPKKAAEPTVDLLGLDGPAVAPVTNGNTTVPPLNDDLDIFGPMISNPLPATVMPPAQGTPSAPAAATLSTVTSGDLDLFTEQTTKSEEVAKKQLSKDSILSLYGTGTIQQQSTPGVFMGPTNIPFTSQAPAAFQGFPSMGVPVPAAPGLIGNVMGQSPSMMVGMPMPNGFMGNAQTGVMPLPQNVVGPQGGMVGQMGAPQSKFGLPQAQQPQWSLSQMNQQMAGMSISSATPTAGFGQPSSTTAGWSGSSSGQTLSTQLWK

[5] = target: T5, SMYD5-SMYD family member 5 (SMYD5) (human, UniProt Q6GMV2 1-418)
T5 sequence (looked up): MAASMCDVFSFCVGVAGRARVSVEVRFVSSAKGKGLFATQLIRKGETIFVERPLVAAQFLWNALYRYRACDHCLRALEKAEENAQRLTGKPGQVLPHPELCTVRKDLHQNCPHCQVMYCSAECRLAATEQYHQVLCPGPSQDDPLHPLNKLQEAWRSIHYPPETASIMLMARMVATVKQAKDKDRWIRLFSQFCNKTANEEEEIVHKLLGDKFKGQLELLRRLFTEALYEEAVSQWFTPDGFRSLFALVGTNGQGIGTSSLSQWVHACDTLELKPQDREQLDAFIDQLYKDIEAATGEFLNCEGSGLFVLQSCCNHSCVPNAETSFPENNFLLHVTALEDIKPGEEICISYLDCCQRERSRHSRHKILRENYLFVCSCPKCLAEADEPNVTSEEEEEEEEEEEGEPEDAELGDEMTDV

[6] = target: T6, MGC10433-RNA-binding protein 42 (human, UniProt Q9BTD8 1-480, limits assumed)
T6 sequence (looked up): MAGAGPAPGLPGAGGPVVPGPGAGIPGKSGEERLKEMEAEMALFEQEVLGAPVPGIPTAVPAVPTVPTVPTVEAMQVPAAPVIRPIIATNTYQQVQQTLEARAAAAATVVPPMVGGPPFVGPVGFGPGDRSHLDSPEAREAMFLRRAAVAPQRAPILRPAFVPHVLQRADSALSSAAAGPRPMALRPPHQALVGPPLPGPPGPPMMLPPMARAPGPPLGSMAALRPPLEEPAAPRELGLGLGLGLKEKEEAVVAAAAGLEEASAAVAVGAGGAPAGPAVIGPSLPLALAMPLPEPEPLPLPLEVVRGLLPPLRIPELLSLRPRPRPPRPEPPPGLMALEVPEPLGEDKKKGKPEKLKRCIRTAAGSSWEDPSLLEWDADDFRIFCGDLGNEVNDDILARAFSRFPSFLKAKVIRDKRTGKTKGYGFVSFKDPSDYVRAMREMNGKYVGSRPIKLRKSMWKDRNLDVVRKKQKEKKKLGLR

[7] = target: CA13-carbonic anhydrase XIII (CA13) (human, UniProt Q8N1Q1 1-262)
CA13-carbonic anhydrase XIII (CA13), sequence (Q8N1Q1 whole entry): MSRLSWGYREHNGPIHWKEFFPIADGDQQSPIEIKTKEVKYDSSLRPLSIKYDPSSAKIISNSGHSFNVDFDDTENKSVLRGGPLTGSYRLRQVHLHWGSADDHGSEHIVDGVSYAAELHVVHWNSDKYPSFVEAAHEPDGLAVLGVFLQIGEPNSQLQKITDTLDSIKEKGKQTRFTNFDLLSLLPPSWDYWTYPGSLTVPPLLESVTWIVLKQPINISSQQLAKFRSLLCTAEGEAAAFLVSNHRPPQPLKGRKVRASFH

GST Average SNR [1]: -0.43
GST Average SNR [2]: 1.18
GST Average SNR [3]: -0.296
GST Average SNR [4]: 1.37
GST Average SNR [5]: 1.16
GST Average SNR [6]: -0.357
GST Average SNR [7]: 0.728
B1: 3× Flag-3×MBT (designed binder)
chain: EEWSSSQPATGEKKECWSWESYLEEQKAITAPVSLFQDSQAVTHNKNGFKLGMKLEGIDPQHPSMYFILTVAEVCGYRLRLHFDGYSECHDFWVNANSPDIHPAGWFEKTGHKLQPPKGYKEEEFSWSQYLRSTRAQAAPKHLFVSQSHSPPPLGFQVGMKLEAVDRMNPSLVCVASVTDVVDSRFLVHFDNWDDTYDYWCDPSSPYIHPVGWCQKQGKPLTPPQDYPDPDNFCWEKYLEETGASAVPTWAFKVRPPHSFLVNMKLEAVDRRNPALIRVASVEDVEDHRIKIHFDGWSHGYDFWIDADHPDIHPAGWCSKTGHPLQPPLGPREPSSASPGG
notes: also called Flag-tagged 3×MBT; 3xFlag-3xMBT; not shown: made by PreScission cleavage of GST-3× Flag-3×MBT
